Reference: patent US20240218393, “VECTORS ENCODING GENE EDITING SYSTEMS AND USES THEREOF” (Mammoth Biosciences, Inc., published 2024)

Target: T1, CasM.19952
T1 chain: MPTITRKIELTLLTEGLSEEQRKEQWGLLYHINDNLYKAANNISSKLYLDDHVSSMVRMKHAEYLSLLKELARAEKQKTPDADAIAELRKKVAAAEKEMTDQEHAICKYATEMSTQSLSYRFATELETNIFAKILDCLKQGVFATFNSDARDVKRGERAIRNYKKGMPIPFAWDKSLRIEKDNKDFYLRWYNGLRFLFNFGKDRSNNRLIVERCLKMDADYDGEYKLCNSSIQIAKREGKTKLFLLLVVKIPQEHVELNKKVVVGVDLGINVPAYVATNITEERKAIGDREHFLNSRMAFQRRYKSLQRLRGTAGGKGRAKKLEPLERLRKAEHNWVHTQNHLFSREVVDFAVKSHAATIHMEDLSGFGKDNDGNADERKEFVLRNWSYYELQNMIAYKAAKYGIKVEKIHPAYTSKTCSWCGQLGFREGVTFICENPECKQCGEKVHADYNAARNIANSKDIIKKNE
Assay: cell_activity; HEK293T, plasmid lipofection; PAM TCG or KYG (Table 1.1)
Details: tags: expressed from plasmid or scAAV
Experimental: CasM.19952 was tested for its ability to produce indels in HEK293T cells. Briefly, a plasmid encoding CasM.19952 and a guide RNA was delivered by lipofection to HEK293T cells. This was performed for a variety of guide RNAs targeting up to twenty-four loci adjacent to biochemically determined PAM sequences. Indels were detected by next generation sequencing of PCR amplicons at the targeted loci and indel percentage was calculated as the fraction of sequencing reads containing insertions or deletions relative to an unedited reference sequence. Sequencing libraries with less than 20% of reads aligning to the reference sequence were excluded from the analysis for quality control purposes. “No plasmid” and SpyCas9 were included as negative and positive controls, respectively. […] TABLE 8 describes the sequences of the single guide RNAs tested that provided the greatest percent of reads with indels. Non-bold, non-italicized, capital letters indicate the tracrRNA region of the guide RNA; italicized letters indicate a linker; bold letters indicate the repeat sequence; and the lowercase letters represent the spacer sequence.

B1: sgRNA SEQ 202 ; target of sgRNA SEQ 202 (protospacer) (ssRNA ; dsDNA)
RNA: UGGGGCAGUUGGUUGCCCUUAGCCUGAGGCAUUUAUUGCACUCGGGAAGUACCAUUUCUCAGAAAUGGUACAUCCAACUCUAGGCGCCCGCUAAGUUC
DNA 1: TCTAGGCGCCCGCTAAGTTC
DNA 2: GAACTTAGCGGGCGCCTAGA
activity: 13.5 % indel reads

B2: sgRNA SEQ 204 ; target of sgRNA SEQ 204 (protospacer) (ssRNA ; dsDNA)
RNA: UGGGGCAGUUGGUUGCCCUUAGCCUGAGGCAUUUAUUGCACUCGGGAAGUACCAUUUCUCAGAAAUGGUACAUCCAACCGUGCUGUUUCCUCCCCACG
DNA 1: CGTGCTGTTTCCTCCCCACG
DNA 2: CGTGGGGAGGAAACAGCACG
activity: 19.4 % indel reads

B3: sgRNA SEQ 206 ; target of sgRNA SEQ 206 (protospacer) (ssRNA ; dsDNA)
RNA: UGGGGCAGUUGGUUGCCCUUAGCCUGAGGCAUUUAUUGCACUCGGGAAGUACCAUUUCUCAGAAAUGGUACAUCCAACGGGGGCGGGGGGGAGAAAAA
DNA 1: GGGGGCGGGGGGGAGAAAAA
DNA 2: TTTTTCTCCCCCCCGCCCCC
activity: 18.4 % indel reads
